Experimental data as given in paper PMC5855017, “Label-Free Aptasensor for Lysozyme Detection Using Electrochemical Impedance Spectroscopy”.

Biological target: Lysozyme (UniProt P00698 19-147)
Assay: electrochemical impedance spectroscopy (label-free aptasensor); PEG-blocked electrode; 0.25-5 uM lysozyme; LOD 1.67 uM, slope 0.090 uM-1 (not Kd); Room temperature incubation; buffers listed: PBS (187 mM NaCl, 2.7 mM KCl, 8.1 mM Na2HPO4, 1.76 mM KH2PO4, pH 7.0) and BB (1 mM MgCl2, 2.7 mM KCl, 140 mM NaCl)
Details: protein: commercial

Chain of Lysozyme (P00698 19-147): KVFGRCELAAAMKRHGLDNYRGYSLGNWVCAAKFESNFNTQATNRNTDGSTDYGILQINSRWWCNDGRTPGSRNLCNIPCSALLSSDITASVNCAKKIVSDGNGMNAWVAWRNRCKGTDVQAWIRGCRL

## ATCTACGAATTCATCAGGGCTAAAGAGTGCAGAGTTACTTAG (ssDNA, 5' aminolink C6, immobilized via amide bond on graphite-epoxy electrode) [AptLys (lysozyme aptamer)]
  binding result: binds
